From the nanobody polyreactivity screen of Harvey et al. (2022)

Assay: yeast display, Sf9 membrane polyspecificity reagent, FACS + sequencing; frameworks hold sequencing errors
Method in brief: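 Using colony PCR, genes from sorted yeast display clones were amplified, then sequenced on MiSeq at 2 × 250 and filtered by CDR length. The clones had been stained with 10% biotinylated, detergent-solubilized Sf9 membrane reagent for 1 hour at 4 °C and sorted by FACS into low and high (top ~1%) gates on anti-HA and streptavidin fluorescence. Polyreactivity labels come from the gate of origin.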

Sequence | polyreactivity (PSR sort gate)
QVHLVESGGGLFQAGGRLRLSCAAAGSTFPKYARGWYRQAPGKERELVAAISWSGDSTNYADSVKGRITISRDNAKNTVYVQMNSLKPEDTAVYYCAAYNFIHAGPWEYDYWGQGTQVTVSS | low polyreactivity
QVHLVESGGGLFQAGGSLRLIFAASGLIFYKNAMGWYRQAPGKERELVAISSSGGSTYYADSVKGRFTISRDNAKNSVYLQMHSLKPEDSAVYYCAARSRRYGGGYWGQGTQVTVSS | high polyreactivity
QVHLVESGGGLFQAGGSLRLSCAASGGIFSIYAMGWYRQAPGKERELVAAISTSGGSTYYADSLKGRFTISRDNAKNSVYLQMNSLKPEDTAVYYCNARRGFYWSWRGRYISGDYWGQGTQVTVSS | high polyreactivity
QVHLVESGGGLGHAGGSLLLSCAASGSIFGRNAMGWYRQAPGKERELVADIWNGGSTYYADSVKGRFTISRDNAKNTVYLQMNILKPEDTAVYYCNADANDDGRFGGYIKYDYWGQGTQVTVSS | low polyreactivity
QVHLVESGGGLGKAGGSLRLTCAASGSTFKYYAMAWYRQAPGKETELVAAISQRGGSTYYADSVKGRFTISRYNAKNTVYLQMNCLKPEDTAVYYCNAGFQRAYSGPGYDMDYWGQGTQVTVSS | high polyreactivity
QVHLVESGGGLLQAGGSLRLSCAASGRTFGHNAMGWNRQAPGKERELVAAISSGGNTYYADSVKGRFTISRDNAKNTVYLQMNSLKPEDTAVYYCAAVTVIGGEYDYWGQGTQVTVSS | low polyreactivity
QVHLVESGGGLLQAGGSLRLSCAASGTIYGVYAMGWYRQAPEKEGELVAAISWTDGTTYYADSVKGRFTISRDNAKNTVYLQINSLKPEDTAVYYCAAEADVPPYLFGYWGQGTQVTVSS | high polyreactivity
QVHLVESGGGLVHAGGSLRLSCAASGSTFPGYGMGWYRQAPGQERELVATNRNGGITNYADSVKGRFTISRDNAKNTVYLQMNSLKAEDTAVYYCAADVVQYLYYFRLDYWGQGTQVTVSS | low polyreactivity
QVHLVESGGGLVKAGGSLRLSCAASGRIFDNYVMGWYRQAPGKERELVAAISSGGGTYYADSVKGRFTISLDNAKNTVYLQMNSLKPEDTAVYYCAAAAYYADFDYWGQGTQVTVSS | low polyreactivity
QVHLVESGGGLVNAGGTLRLSCAASGSTYSRYAMGWYRQAPVKESELVAAITRSGGSTYYADSVKGRFTISRDNAKNTVYLQMNSLKPEDTAVYYCNRPRLYGGSPYYYWGQGTQVTVSS | high polyreactivity
QVHLVESGGGLVQAGCSLRLSCAASGSTISRYAMGWNRQAPGKETELVATITGGGRTYYADSVKGRFTISRDNAKNTVYLQMNSLKPEDTAVYYCAVRGYHQYKYGYWGQGTQVTVSS | high polyreactivity
QVHLVESGGGLVQAGCSLRLSCAASGSTSASYAMGCDRQAPGKERELVAAISGRGTTTYYADSVKGRFTISRDNAKNTVYLQMNSLKPEDTAVYYCAVYRRGGVEAFLYWGQGTQVTVSS | high polyreactivity
QVHLVESGGGLVQAGCSLRLSSSASGFTFVRNAMGWYRQAPGKERELVAAISKSGGRTYYTDSVKGRFTISRDNAKNSVYLHLNSLIPEDTAVYYCASDPVSDYYGYGYWGQGTQVTVSS | high polyreactivity
QVHLVESGGGLVQAGGCLRLSCAASGYIFKSYVMGWYRQAPGKERELVAAITWSGGSTYYADSVKGRFTMSRDNAKNTVYFQMNSLKPEDTAVYYCAAYPRRYRTTYDYWRQGTQVTVSS | high polyreactivity
QVHLVESGGGLVQAGGRLRLSCAASGRIFGTNAMGWYRQAPGKERELVATITRGGGNTYYADSVKGRFTISRDKAKNTVYLQRNSLKPEDTAVYYCAAKFHRFAWFSHYDYWGQGTQVTVSS | low polyreactivity
QVHLVESGGGLVQAGGSHRLSCAASGSIFRYNAMGWYRQAPGKEREFVAIISYSGVRTYYADSVKGRFTISRDNAKNTVYLEMNSLKPEDTAVYYCAADFKQKGHRTRTTYWGQGTQVTVSS | high polyreactivity
QVHLVESGGGLVQAGGSHRLSCAASGSIFWYNAMGWYRQAPGKERELVAGITYGGDTNYADSVKGRFTISRDNAKNTVYLQMNSLKPEDTAVYYCAKRWYGGRRYDYWGQGTQVTVSS | low polyreactivity
QVHLVESGGGLVQAGGSLHLSCAPSGRTFGYYAKGGYRQAPGKEREFVAAISHSAGSTSYADSVKGRFTLSRDNAKNTVYLQMNSLKPEDTAVYYCATPSQLHPYEYWGQGSQVTVSS | low polyreactivity
QVHLVESGGGLVQAGGSLLLSCAASGFTFTAYAMGWYRQAPGKERELVAAISYRGGRTNYAYSVKGRFTISRDNAKNTVYLQMNSLKPEDTAVYYCASRQGISTREMDYWGQGTQVTVSS | high polyreactivity
QVHLVESGGGLVQAGGSLLLSCGASGITFVTYAMGWYRQAPGKEREFVPAISRSGGRTYYADSVKGRFTISRDNAKNTVYLQMNSLKPEDTAVYYCASDVFLLYSFTIYDYWGQGTQVTVSS | high polyreactivity
QVHLVESGGGLVQAGGSLRISCAASGFTFRYNAMGWNRQAPGKERELVAAISRGTITNYADSVKGRFTISRDNAKNTVYLQMNSLKPEDTAVYYCAARYPGHFRFYYWGQGTQVTVSS | high polyreactivity
QVHLVESGGGLVQAGGSLRISCAASGFTFVWYAMGWYRPPPGKERELVAALSRRGTRTYYADSVKGRFSISRDNAKNTVYLQMNSLKPEDTAVYYSAASNGYEAVTYDYWGQGTQVTVSS | high polyreactivity

Sequence | polyreactivity (PSR sort gate)
QVHLVESGGGLVQAGGSLRISCAASGLIFPDYTMGWYRPAPGKESELVAVITDGDSTYYADSVKGRFTISRDNAKNTVYLQMNSLKPEDTAVYYCASELDGSKYTLDYWGQGTQVTVSS | low polyreactivity
QVHLVESGGGLVQAGGSLRISCAAYGRTFRYYAMGCYRQAPAKDRELVAGISSSGDRTYFADSVKGRFTISRDTAKNTVYLQMNSLKPEDTAVYYCAADRGARGDYYWGQGTQVTVSS | high polyreactivity
QVHLVESGGGLVQAGGSLRISGAASGSTFGTYAMGWYRQAPGKERELVAAITSGGSTDYADSVKGRFTISRDNAKNTVYLQMNSLKPEDTAVYYCTARGYGYLGRKGGYSYGYYYWGQGNQVTVSS | low polyreactivity
QVHLVESGGGLVQAGGSLRLICAASGFIFRQYAMGWYRQAPGKERELVAAISYRGASTYYADSVKGRFTISRDNAKNTVYLQMNSLKPEDTAVYYCADRYYNPWARVSGYDYWGQGTQVTVSS | high polyreactivity
QVHLVESGGGLVQAGGSLRLRCAASGIIFRRYAMGWYRQAPGKESEFVAAIRYTGGGTYYADSVKGRFTISRDNAKNTVYLQMNSLQPEDTAVYYCAASSRVSKSHLYGYWGQGTQVTVSS | high polyreactivity
QVHLVESGGGLVQAGGSLRLRCAASGSIFLLYAMGWYRQPPGKGRELVAAITYSGGRTYADSVKGRFTISRDNAKNTGYLQMISLKPEDTAVNYCATDAPAPKYDYWGQGTQVTVSS | low polyreactivity
QVHLVESGGGLVQAGGSLRLRCDASGSIFKPYARGWYRQAPGKERELVAGITAGGASTYYADSVKGRFTISRDNAKNTVYLQMNSLKPEDTAVYYCAAGDYQSGVRYDYWGQGTQVTVSS | low polyreactivity
QVHLVESGGGLVQAGGSLRLSCAAAGSTSARYAMGWYRQPPGKERELVATITRSGTTKYADSVKGRFTISRDNAKNTVYLQMNSLKPEDTAVYYCNTDTYFPLYDYWGQGTQVTVSS | low polyreactivity
QVHLVESGGGLVQAGGSLRLSCAACGLTFTHYTMGWYRQAPGKERELVAAITTSGGSTYYADSLKGRFTISRDNAKKTVYLQLNSLKPEDTPVYYCAADLGGNSRLDYWGQGTQETVSS | high polyreactivity
QVHLVESGGGLVQAGGSLRLSCAACGRTFRSNALGWYSQAPGTEREFVAALSGRGGITYFADSVTGRFSISRDNAKNTVYLQMNSLKPEDTAVDYCNRDVKFHDYVYVTGINSPGYNYWGQGTQVTVSS | low polyreactivity
QVHLVESGGGLVQAGGSLRLSCAASAFTFSQYAMGWYRQAPGKERELVAVISINGGSTYYADSVKGRFTISRDNAKNTVYLQMNSLKPEDTAVYYCAADDTDSEYYGYDYWGQGTQVTVSS | low polyreactivity
QVHLVESGGGLVQAGGSLRLSCAASGFIFAGYTMGWYRQAPRKERELVAAINSGGSTKYADSVKGRFTISRDNAKNTVYLQMNSLKPEDTAVSYCNADYGWYFLFDYWGQGTQVTVSS | low polyreactivity
QVHLVESGGGLVQAGGSLRLSCAASGFIFDYYAMGWYRQAPGKERELVAAITGSGGGTYYADSVKGRFTISRDNAKNTVYLQMNSLKPEDSAVYYCNAYVPYPYSSEVQDYDYWGQCTQVTVSS | high polyreactivity
QVHLVESGGGLVQAGGSLRLSCAASGFIFGRNAMGWYRQAPGKEREFVAALTRIGGNTYYADSVKGRFTISRDNAKNTVYLQMNSLKPEDTAVYYCAARLSYFHAYGFYWGQGTQVTVSS | high polyreactivity
QVHLVESGGGLVQAGGSLRLSCAASGFIFLPYAMGSYRQAPGKERELVAAITRGGRTYYADSVKGRFTISRDNAKNTVYLQMNSLKPEDTAVYYCAAVVWAPFYEFYYWGQGTQVTVSS | low polyreactivity
QVHLVESGGGLVQAGGSLRLSCAASGFIFNVYAMGWYRQAPGKERELVAAISFSGTSTYYADSVKGRFTISRDNAKNTVYLQMNSLKPEDTAVYYCAARYWSRDQWPRSLYYWGQGTQVTVSS | high polyreactivity
QVHLVESGGGLVQAGGSLRLSCAASGFIFPAYVMGWYRQAPGKERELVAVIGSGGSTSYADSVKGRFTISRDNAKNTVYLQMNSLKPEDTAVYYCTADPTWFGYVYYQYDYWGQGTKVTVSS | low polyreactivity
QVHLVESGGGLVQAGGSLRLSCAASGFIFRRYAMGWYRQAPGKERELVAAITSSGTSTYYADSVKGRFTISRDNAKNTVYLQMNSLKPEDAAVYFCNRDNYVRWIREDFDYWGQGTQVTVSS | high polyreactivity
QVHLVESGGGLVQAGGSLRLSCAASGFIYWAYAMGWYRQAPGKERELVAGITRSGGSTYYADSVKGRFTISRDNAKNTVYLQMNSLKPEDTAVYYCAADFRYNGGYWGQGTQVTVSS | high polyreactivity
QVHLVESGGGLVQAGGSLRLSCAASGFTCGYNAMGWYRQAPGKETELVATICGGGRTKYADSVKGRFTLSRDNAKNTVYLQMNSLKPEDTAVYYCNVVQTYYRGSYIYIKYGYWGQGTQVTVSS | high polyreactivity
QVHLVESGGGLVQAGGSLRLSCAASGFTFDQNAMGWYRQAPGKERELVAAISIGGSTYYADSVKGRFTISRDNAKNTVYLQMNSLKPEDTAVYYCATRNIYFSSVDYWGQGTQVTVSS | high polyreactivity
